# Measurements as given in patent US9549967B2, “Regulation of sodium channels by PLUNC proteins” (The University of North Carolina at Chapel Hill, priority 2009, dated 2017).
# T1: α and γ ENaC (Rattus norvegicus, UniProt P37089+P37091)
# T1 construct: expressed in transfected cells; host or cells: Xenopus laevis oocytes (cRNA injection)
# T1 sequence (P37089 1-698): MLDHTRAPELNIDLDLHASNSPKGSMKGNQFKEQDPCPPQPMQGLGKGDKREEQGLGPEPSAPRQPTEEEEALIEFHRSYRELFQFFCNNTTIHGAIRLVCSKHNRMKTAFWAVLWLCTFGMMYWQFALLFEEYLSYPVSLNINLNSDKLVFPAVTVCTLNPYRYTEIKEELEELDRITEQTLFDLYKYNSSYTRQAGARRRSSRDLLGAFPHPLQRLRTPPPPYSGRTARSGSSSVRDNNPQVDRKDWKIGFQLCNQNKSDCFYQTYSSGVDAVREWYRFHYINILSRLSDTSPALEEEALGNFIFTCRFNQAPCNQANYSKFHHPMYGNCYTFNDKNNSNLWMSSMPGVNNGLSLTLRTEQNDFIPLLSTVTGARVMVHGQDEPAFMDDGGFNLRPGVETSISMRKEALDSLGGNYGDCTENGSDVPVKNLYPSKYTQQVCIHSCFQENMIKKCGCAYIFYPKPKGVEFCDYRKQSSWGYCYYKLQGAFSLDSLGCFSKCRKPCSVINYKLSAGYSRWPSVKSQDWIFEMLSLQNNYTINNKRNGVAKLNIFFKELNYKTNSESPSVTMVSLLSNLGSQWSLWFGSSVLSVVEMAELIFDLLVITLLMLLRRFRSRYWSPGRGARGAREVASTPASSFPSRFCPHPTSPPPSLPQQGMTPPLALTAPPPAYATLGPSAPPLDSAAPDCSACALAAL
# T1 sequence (P37090 1-638 partner): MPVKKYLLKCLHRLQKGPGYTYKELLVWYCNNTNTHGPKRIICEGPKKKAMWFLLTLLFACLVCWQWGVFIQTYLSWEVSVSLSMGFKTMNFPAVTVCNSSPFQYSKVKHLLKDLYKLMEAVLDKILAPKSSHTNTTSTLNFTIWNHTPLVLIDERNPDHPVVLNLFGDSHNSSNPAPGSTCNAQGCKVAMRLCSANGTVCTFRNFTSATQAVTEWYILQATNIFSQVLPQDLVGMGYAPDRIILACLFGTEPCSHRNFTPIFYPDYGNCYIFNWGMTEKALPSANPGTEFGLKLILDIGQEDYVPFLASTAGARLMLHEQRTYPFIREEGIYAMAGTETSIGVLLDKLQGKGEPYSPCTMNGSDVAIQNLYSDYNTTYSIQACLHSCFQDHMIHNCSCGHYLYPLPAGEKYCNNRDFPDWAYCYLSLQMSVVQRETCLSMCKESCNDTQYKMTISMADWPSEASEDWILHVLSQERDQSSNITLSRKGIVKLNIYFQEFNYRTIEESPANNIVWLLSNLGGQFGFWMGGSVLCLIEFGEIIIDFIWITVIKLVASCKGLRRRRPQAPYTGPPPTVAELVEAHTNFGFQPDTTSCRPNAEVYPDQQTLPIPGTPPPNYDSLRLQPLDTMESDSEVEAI
# T1 sequence (P37091 1-650): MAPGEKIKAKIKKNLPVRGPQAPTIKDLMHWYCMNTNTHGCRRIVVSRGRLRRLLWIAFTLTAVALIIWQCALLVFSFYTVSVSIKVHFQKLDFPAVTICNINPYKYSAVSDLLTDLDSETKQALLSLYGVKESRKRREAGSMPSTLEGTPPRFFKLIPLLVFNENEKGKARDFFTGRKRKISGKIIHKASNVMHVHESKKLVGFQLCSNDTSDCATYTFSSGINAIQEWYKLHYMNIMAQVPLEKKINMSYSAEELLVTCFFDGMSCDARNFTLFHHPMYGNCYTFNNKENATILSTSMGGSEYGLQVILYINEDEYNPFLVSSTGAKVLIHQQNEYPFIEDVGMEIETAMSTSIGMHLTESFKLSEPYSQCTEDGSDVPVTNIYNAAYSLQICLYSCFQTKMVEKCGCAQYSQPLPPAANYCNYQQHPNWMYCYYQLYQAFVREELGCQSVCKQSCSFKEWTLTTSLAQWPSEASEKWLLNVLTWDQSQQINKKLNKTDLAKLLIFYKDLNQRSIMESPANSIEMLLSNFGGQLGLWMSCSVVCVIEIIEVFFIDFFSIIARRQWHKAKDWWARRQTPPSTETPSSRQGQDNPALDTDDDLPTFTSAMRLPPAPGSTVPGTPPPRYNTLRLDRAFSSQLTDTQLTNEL
# B1: SPLUNC1: human SPLUNC1, 256 amino acid secreted PLUNC protein (SEQ ID NO:1); rSPLUNC1 = V5/6His-tagged protein purified from HEK293 media (protein, listed as Homo sapiens)
# chain: MFQTGGLIVFYGLLAQTMAQFGGLPVPLDQTLPLNVNPALPLSPTGLAGSLTNALSNGLLSGGLLGILENLPLLDILKPGGGTSGGLLGGLLGKVTSVIPGLNNIIDIKVTDPQLLELGLVQSPDGHRLYVTIPLGIKLQVNTPLVGASLLRLAVKLDITAEILAVRDKQERIHLVLGDCTHSPGSLQISLLDGLGPLPIQGLLDSLTGILNKVLPELVQGNVCPLVNEVLRGLDITLVHDIVNMLIHGLQFVIKV
# modifications: V5/6His tag
# notes: rSPLUNC1 = V5/6His-tagged protein purified from HEK293 media
# Target: T1, α and γ ENaC
# Test: ENaC cleavage by CAP2 in Xenopus oocytes (Western blot, V5 antibody)
# Format: cell-based
# Settings: αβγENaC, CAP2 and SPLUNC1 co-expressed in oocytes
# Method: Western Blotting: Airway surface liquid collected as described above was also placed in protease-inhibitor cocktail (Roche) for Western blotting. The protein concentration was determined using the BCA Assay (Pierce). To obtain SPLUNC1 from Xenopus oocytes, oocytes were lysed in Laemmli buffer or oocyte media was directly sampled and placed in Laemmli buffer. Proteins were resolved using SDS-PAGE and transferred to a Polyvinylidene Fluoride (PVDF) membrane. The membrane was then probed using αSplunc1 or αV5 antibodies and a Donkey anti-Mouse HRP antibody (R&D). The blots were then incubated with ECL reagents (Pierce).
# Co-Immunoprecipitation: Xenopus oocytes were injected with either HA-N-Terminus or V5-C-Terminus (HA-NT/V5-CT) tagged subunits in combination with wild type (WT) untagged rat αβγENaC subunits (0.3 ng cRNA each) with or without V5-tagged SPLUNC1 and CAP2 (1 ng cRNA each). After 24 h, 40 eggs per experimental condition were lysed with buffer containing (in mM): 20 Tris, 50 NaCl, 50 NaF, 10 β-glycerophosphate, 5 Na4P2O7 pyrophosphate, 1 EDTA, pH 7.5 and protease inhibitors (complete, Roche), aprotinin (Sigma). Cell lysates were prepared by passing the eggs through a 27 G1/2 needle twice and by centrifugation at 3,600 rpm for 10 minutes at 4° C. Supernatants were transferred to new tubes and samples were spun at 14,000 rpm for 20 minutes at 4° C. […]
molecule,measurement,value
B1,α and γ ENaC cleavage by CAP2,only full-length α and γ ENaC subunits could be observed
